Molecular target: human calmodulin wild-type (pIRES-DsRed-HisB-cMyc-CaM WT) (human) (UniProt P0DP23)

Substance: human SK4 R352D/R355D (from UniProt O15554 1-427) (natural protein)
- TRAM-34 sensitive whole-cell K+ current density at +60 mV, HEK293T cells co-transfected with SK4 R352D/R355D and CaM WT, 0.1 uM Cai (not different from background): 54 pA/pF

Source: article PMC11050286
